Experimental data published in patent US6824994B2, “Peptide ligands that mimic sensor kinases and inhibit response regulators” (priority 2000, dated 2004).
Entries after “also recorded” stand apart in the source; their conditions may differ.

Legend:
[1] = target: T1, phosphoryl transfer from P˜VanS to PhoB (Escherichia coli, UniProt P0AFJ5); experiment: Phosphotransferase assay, phosphoryl transfer from P˜VanS to PhoB; assay type: biochemical; conditions: peptide at 1 mM
T1 construct: GST (N, cleaved yes); made in house; host or cells: E. coli BL21 lambda DE3 (pGEX-2TK)
T1 sequence (P0AFJ5 whole entry): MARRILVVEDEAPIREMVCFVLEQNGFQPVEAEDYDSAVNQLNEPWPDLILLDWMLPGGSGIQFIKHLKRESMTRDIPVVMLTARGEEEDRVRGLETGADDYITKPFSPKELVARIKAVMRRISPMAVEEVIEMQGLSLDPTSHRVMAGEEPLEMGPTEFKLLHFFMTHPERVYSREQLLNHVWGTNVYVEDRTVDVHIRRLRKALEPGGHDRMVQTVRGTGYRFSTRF
Method: Phosphotransferase Assay. VanSc-GST (4 pmol) was labeled for 60 minutes at room temperature in a 5 μL volume containing, 50 mM Tris-HCl (pH 7.4), 5 mM MgCl2, and 100 mM KCl. The reaction was initiated by addition of 1 μL of 200 μM [γ-^32P]ATP which contained 1 μCi. After 60 minutes, the 5 μL reaction mixture was added to a 15 μL reaction mixture containing 80 pmol of PhoB and 2.5 mM PMSF all in the same buffer, with the appropriate peptide at a final concentration of 1 mM. Reactions were stopped by the addition of 10 μL of SDS gel loading buffer, and the resultant mixture was fractionated by SDS-PAGE. Phosphoproteins were assessed autoradiographically with a phosphorimager, as previously described.

VanR˜P-PVanH complex = target: T2, VanR˜P-PVanH complex (Enterococcus faecium, UniProt Q06239); experiment: Gel shift analysis of VanR˜P binding to PVanH DNA; assay type: biochemical
T2 construct: GST (N, cleaved yes); made in house; host or cells: E. coli BL21 lambda DE3 (pGEX-2TK); phosphorylated with lithium acetyl phosphate
T2 sequence (Q06239 whole entry, one chain of several): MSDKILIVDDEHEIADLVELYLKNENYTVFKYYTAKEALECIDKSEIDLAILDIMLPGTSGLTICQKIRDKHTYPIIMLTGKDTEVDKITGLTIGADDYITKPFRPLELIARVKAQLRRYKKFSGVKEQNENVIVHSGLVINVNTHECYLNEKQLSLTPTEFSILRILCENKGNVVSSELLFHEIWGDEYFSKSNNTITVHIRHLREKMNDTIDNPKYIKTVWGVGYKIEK
Method: (§1) Amplification and 5′-End-Labeling of PVanH DNA. A 254 bp DNA fragment containing the PVanH promoter region (residues −191 to 63) was obtained by PCR as described by T. Holman et al., 33 Biochem. 4625-4631 (1994) using a boiled cell preparation of En. faecium A634 as the template source. Amplified PVanH promoter DNA was 5′-end-labeled with [γ-32 P]ATP (specific activity of […]) and phage T4 polynucleotide kinase. The reaction mixture was incubated for 30 minutes at 37° C., and unincorporated ATP was removed by centrifugal gel filtration (Sephadex G-50 spin column, Amersham Pharmacia Biotech).
Phosphorylation of VanR with Acetyl Phosphate. VanR was phosphorylated as described previously in T. Holman et al., 33 Biochem. 4625-4631 (1994). The reaction was performed in a total volume of 100 μL which contained 50 mM HEPES (pH 7.2), 5 mM MgCl2, 50 mM lithium acetyl phosphate, and 9 μM VanR. […]
Gel Shift Analysis of VanR ˜P Binding to PVanH DNA. VanR-PVanH complexes were quantified by gel shift analysis as described by T. Holman et al., 33 Biochem. 4625-4631 (1994). […]
(§2) To start the reaction, ^32P-labeled PVanH promoter probe DNA (0.65 ng in 1 μL) was added, and the reaction mixture was incubated on ice for 15 minutes. The resultant VanR˜P-PVanH complexes were analyzed by nondenaturing PAGE. […]

VanR = target: T3, VanR (Enterococcus faecium, UniProt Q06239); experiment: Phage ELISA of phage-displayed peptides binding to immobilised VanR; conditions: cloned N-terminal regulatory domain of VanR
T3 construct: GST (N, cleaved yes); made in house; host or cells: E. coli BL21 lambda DE3 (pGEX-2TK)
T3 sequence (Q06239 whole entry, the tested form may be a part): as the sequence (Q06239 whole entry, one chain of several) above
Method: Phage Display. Phage display was performed using the methods described by A. Sparks et al., Phage Display Of Peptides And Proteins; A Laboratory Manual (1996). Microtiter plate wells were coated with purified VanR and used to select binding phage from a library displaying combinatorial peptides, i.e., 10 random NNK codons followed by a Cys codon, TGC, in the eleventh position (N is A, G, C, or T, and K is G or T). After three rounds of selection, the binding of individual phage clones to the VanR target protein was assessed by phage-ELISA using an anti-M13 phage monoclonal antibody-horseradish peroxidase conjugate (Pharmacia). Ninety-six phage plaques were picked from the third round of selection and tested for their ability to bind to VanR and to BSA, by phage ELISA, to determine levels of specific and background binding, respectively.
For inserting determinants for desired peptide sequences into phage M13 DNA, oligonucleotides encoding the defined peptide sequences were cloned into the XhoI and XbaI sites within gene III of bacteriophage M13. The resulting recombinant phage were then tested for binding to various protein targets, immobilized within microtiter plate wells, by phage ELISA. […]
Sequence Analysis of Combinatorial Peptides. […] The deduced peptide sequences were further analyzed by alignment with the amino acid sequence of VanS using the program MultAlin. […]

VanR-PVanH complex = target: T4, VanR-PVanH complex (Enterococcus faecium, UniProt Q06239); experiment: Inhibition of the interaction between 32P-labeled PVanH promoter DNA and VanR; assay type: biochemical; conditions: chemically synthesized peptide in disulfide form; 32P-labeled PVanH DNA segment
T4 construct: GST (N, cleaved yes); made in house; host or cells: E. coli BL21 lambda DE3 (pGEX-2TK)
T4 sequence (Q06239 whole entry, one chain of several): as above
Method: as §1
Gel Shift Analysis of VanR ˜P Binding to PVanH DNA. VanR-PVanH complexes were quantified by gel shift analysis as described by T. Holman et al., 33 Biochem. 4625-4631 (1994). Complexes were formed in a total volume of 15 μL which contained 4 pmol of VanR-P, which was preincubated with the appropriate effector peptides (as aqueous solutions) for 10 minutes at room temperature in 20 mM HEPES (pH 7.2), 5 mM MgCl2, 0.1 mM Na2EDTA, 0.5 mM CaCl2, 10% glycerol, and 0.5 μg of salmon sperm DNA.
as §2, with “PAGE. See generally J. Sambrook et al., Molecular Cloning: A Laboratory Manual, 2nd Ed.” for “PAGE.”

Substance | inhibition of phosphoryl transfer from VanS˜P to PhoB [1] | inhibition of the binding of VanR˜P to DNA segment of cognate promoter PVanH (VanR˜P-PVanH complex) | binding to the regulatory domain of VanR (VanR) | inhibition of the interaction between VanR and PVanH (VanR-PVanH complex)
SEQ ID NO. 2: modified peptide derived from SEQ ID NO. 1, more closely resembling VanS; the two Cys replaced with Ala and Ser (SLAHDSIIGYLS) | inhibited phosphoryl transfer | found to inhibit the binding of VanR˜P | – | –
SEQ ID NO. 1: dodecamer peptide selected from a combinatorial phage-display library for binding to VanR; contains two Cys residues (SLCHDSVIGWEC) | – | found to inhibit the binding of VanR˜P | localized to the N-terminal, regulatory domain of VanR; also recorded: bound reproducibly to the cloned regulatory domain of VanR preferentially | inhibited the interaction between VanR and PVanH
